Reference: paper PMC2198996

Target: HA1.7 TCR-β chain (human)
Test: co-IP

stoichiometry N: 1
Substance: HA1.7 TCR-α chain
